Data from US20260049138A1 (Chugai, published 2026).
Residue numbers refer to the chain shown, from its start. Names and notes keep the numbering of the source.

B1: GLS3000 P95A one-arm antibody (antibody, human IgG1, kappa, L234A L235A, N297A, name in Kabat numbering)
heavy: QVQLVESGGGVVQPGRSLRLSCAASGFTFSNAWMHWVRQAPGKGLEWVAQIKAKSNNYATYYAESVKGRFTISRDDSKNSLYLQMNSLKTEDTAVYYCRYVHYGAYYGVDAWGQGTTVTVSSASTKGPSVFPLAPSSKSTSGGTAALGCLVKDYFPEPVTVSWNSGALTSGVHTFPAVLQSSGLYSLSSVVTVPSSSLGTQTYICNVNHKPSNTKVDKKVEPKSCDKTHTCPPCPAPEAAGGPSVFLFPPKPKDTLMISRTPEVTCVVVDVSHEDPEVKFNWYVDGVEVHNAKTKPREEQYASTYRVVSVLTVLHQDWLNGKEYKCKVSNKALPAPIEKTISKAKGQPREPQVYTLPPSRCELTKNQVSLSCAVKGFYPSDIAVEWESNGQPENNYKTTPPVLDSDGSFFLVSKLTVDKSRWQQGNVFSCSVMHEALHNHYTQKSLSLSPDYKDDDDK
chain: EPKSSDKTHTCPPCPAPELLGGPSVFLFPPKPKDTLMISRTPEVTCVVVDVSHEDPEVKFNWYVDGVEVHNAKTKPREEQYNSTYRVVSVLTVLHQDWLNGKEYKCKVSNKALPAPIEKTISKAKGQPREPQVCTLPPSRDELTKNQVSLWCLVKGFYPSDIAVEWESNGQPENNYKTTPPVLDSDGSFFLYSKLTVDKSRWQQGNVFSCSVMHEALHNRYTQKSLSLSP
light: DIVMTQSPLSLPVTPGEPASISCRSSQSLVHSNRNTYLHWYQQKPGQAPRLLIYKVSNRFSGVPDRFSGSGSGTDFTLKISRVEAEDVGVYYCGQGTQVAYTFGQGTKLEIKRTVAAPSVFIFPPSDEQLKSGTASVVCLLNNFYPREAKVQWKVDNALQSGNSQESVTEQDSKDSTYSLSSTLTLSKADYEKHKVYACEVTHQGLSSPVTKSFNRGEC
B2: GLS3000 R24E one-arm antibody (antibody, human IgG1, kappa, L234A L235A, N297A, name in Kabat numbering)
heavy: B1 heavy
chain: B1 chain
light: B1 light with R24E, A100P
B3: GLS3000 Q90E one-arm antibody (antibody, human IgG1, kappa, L234A L235A, N297A, name in Kabat numbering)
heavy: B1 heavy
chain: B1 chain
light: B1 light with Q95E, A100P
B4: GLS3000 R24A one-arm antibody (antibody, human IgG1, kappa, L234A L235A, N297A, name in Kabat numbering)
heavy: B1 heavy
chain: B1 chain
light: B1 light with R24A, A100P
B5: GLS3000 Q93A one-arm antibody (antibody, human IgG1, kappa, L234A L235A, N297A, name in Kabat numbering)
heavy: B1 heavy
chain: B1 chain
light: B1 light with Q98A, A100P
B6: GLS3000 R24P one-arm antibody (antibody, human IgG1, kappa, L234A L235A, N297A, name in Kabat numbering)
heavy: B1 heavy
chain: B1 chain
light: B1 light with R24P, A100P
B7: GLS3000 Q93Y one-arm antibody (antibody, human IgG1, kappa, L234A L235A, N297A, name in Kabat numbering)
heavy: B1 heavy
chain: B1 chain
light: B1 light with Q98Y, A100P
B8: GLS3000 Q90P one-arm antibody (antibody, human IgG1, kappa, L234A L235A, N297A, name in Kabat numbering)
heavy: B1 heavy
chain: B1 chain
light: B1 light with Q95P, A100P
B9: GLS3000 R24Q one-arm antibody (antibody, human IgG1, kappa, L234A L235A, N297A, name in Kabat numbering)
heavy: B1 heavy
chain: B1 chain
light: B1 light with R24Q, A100P
B10: GLS3000 Q90Y one-arm antibody (antibody, human IgG1, kappa, L234A L235A, N297A, name in Kabat numbering)
heavy: B1 heavy
chain: B1 chain
light: B1 light with Q95Y, A100P
B11: GLS3000 P95G one-arm antibody (antibody, human IgG1, kappa, L234A L235A, N297A, name in Kabat numbering)
heavy: B1 heavy
chain: B1 chain
light: B1 light with A100G
B12: GLS3000 Q90D one-arm antibody (antibody, human IgG1, kappa, L234A L235A, N297A, name in Kabat numbering)
heavy: B1 heavy
chain: B1 chain
light: B1 light with Q95D, A100P
B13: GLS3000 R24T one-arm antibody (antibody, human IgG1, kappa, L234A L235A, N297A, name in Kabat numbering)
heavy: B1 heavy
chain: B1 chain
light: B1 light with R24T, A100P
B14: GLS3000 R24D one-arm antibody (antibody, human IgG1, kappa, L234A L235A, N297A, name in Kabat numbering)
heavy: B1 heavy
chain: B1 chain
light: B1 light with R24D, A100P
B15: GLS3000 P95E one-arm antibody (antibody, human IgG1, kappa, L234A L235A, N297A, name in Kabat numbering)
heavy: B1 heavy
chain: B1 chain
light: B1 light with A100E
B16: GLS3000 Q27D one-arm antibody (antibody, human IgG1, kappa, L234A L235A, N297A, name in Kabat numbering)
heavy: B1 heavy
chain: B1 chain
light: B1 light with Q27D, A100P
B17: GLS3000 Q93D one-arm antibody (antibody, human IgG1, kappa, L234A L235A, N297A, name in Kabat numbering)
heavy: B1 heavy
chain: B1 chain
light: B1 light with Q98D, A100P
B18: GLS3000 Q27P one-arm antibody (antibody, human IgG1, kappa, L234A L235A, N297A, name in Kabat numbering)
heavy: B1 heavy
chain: B1 chain
light: B1 light with Q27P, A100P
B19: GLS3000 Q27R one-arm antibody (antibody, human IgG1, kappa, L234A L235A, N297A, name in Kabat numbering)
heavy: B1 heavy
chain: B1 chain
light: B1 light with Q27R, A100P
B20: GLS3000 Q27L one-arm antibody (antibody, human IgG1, kappa, L234A L235A, N297A, name in Kabat numbering)
heavy: B1 heavy
chain: B1 chain
light: B1 light with Q27L, A100P
B21: GLS3000 R24G one-arm antibody (antibody, human IgG1, kappa, L234A L235A, N297A, name in Kabat numbering)
heavy: B1 heavy
chain: B1 chain
light: B1 light with R24G, A100P
B22: GLS3000 Q93E one-arm antibody (antibody, human IgG1, kappa, L234A L235A, N297A, name in Kabat numbering)
heavy: B1 heavy
chain: B1 chain
light: B1 light with Q98E, A100P
B23: GLS3000 Q93S one-arm antibody (antibody, human IgG1, kappa, L234A L235A, N297A, name in Kabat numbering)
heavy: B1 heavy
chain: B1 chain
light: B1 light with Q98S, A100P
B24: GLS3000 Q93P one-arm antibody (antibody, human IgG1, kappa, L234A L235A, N297A, name in Kabat numbering)
heavy: B1 heavy
chain: B1 chain
light: B1 light with Q98P, A100P
B25: GLS3000 Q27E one-arm antibody (antibody, human IgG1, kappa, L234A L235A, N297A, name in Kabat numbering)
heavy: B1 heavy
chain: B1 chain
light: B1 light with Q27E, A100P
B26: GLS3000 P95S one-arm antibody (antibody, human IgG1, kappa, L234A L235A, N297A, name in Kabat numbering)
heavy: B1 heavy
chain: B1 chain
light: B1 light with A100S
B27: GLS3000 Q90A one-arm antibody (antibody, human IgG1, kappa, L234A L235A, N297A, name in Kabat numbering)
heavy: B1 heavy
chain: B1 chain
light: B1 light with Q95A, A100P
B28: GLS3000 Q90S one-arm antibody (antibody, human IgG1, kappa, L234A L235A, N297A, name in Kabat numbering)
heavy: B1 heavy
chain: B1 chain
light: B1 light with Q95S, A100P
B29: GLS3000 P95L one-arm antibody (antibody, human IgG1, kappa, L234A L235A, N297A, name in Kabat numbering)
heavy: B1 heavy
chain: B1 chain
light: B1 light with A100L
B30: GLS3000 R24S one-arm antibody (antibody, human IgG1, kappa, L234A L235A, N297A, name in Kabat numbering)
heavy: B1 heavy
chain: B1 chain
light: B1 light with R24S, A100P
B31: GLS3000 P95D one-arm antibody (antibody, human IgG1, kappa, L234A L235A, N297A, name in Kabat numbering)
heavy: B1 heavy
chain: B1 chain
light: B1 light with A100D
B32: GLS3000 Q93R one-arm antibody (antibody, human IgG1, kappa, L234A L235A, N297A, name in Kabat numbering)
heavy: B1 heavy
chain: B1 chain
light: B1 light with Q98R, A100P

target: T1, CD3ε homodimer protein (human, UniProt P07766 23-126, limits assumed); assay: SPR Biacore T200, CD3ε homodimer on chip;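 also: Light-chain single-residue variant antibodies injected over amine-coupled CD3ε homodimer on a CM4 chip at 25 °C, bound amount divided by that of the GLS3000-containing antibody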
T1 construct: also called CD3 (CD3ε)
T1 sequence (P07766 23-126 limits assumed): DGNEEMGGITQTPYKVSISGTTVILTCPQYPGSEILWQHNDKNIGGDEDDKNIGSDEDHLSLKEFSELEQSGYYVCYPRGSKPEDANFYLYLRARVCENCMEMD

Going from B1 to B2, the “ratio of amount bound vs unaltered GLS3000” value (“ratio of amount bound” below) rises from 0.63 to 0.83.

B3 and B4 are the same in “ratio of amount bound” value: 0.86 for the first, 0.86 for the second.

Compared with B5, B6 is lower in “ratio of amount bound” value: 0.85 for the first, 0.7 for the second.

Going from B7 to B8, the “ratio of amount bound” value falls from 0.87 to 0.27.

First: B9
Second: B10
The “ratio of amount bound” value of the first is higher: 0.9 for the first, 0.17 for the second.

Going from B11 to B12, the “ratio of amount bound” value falls from 0.37 to 0.19.

Compared with B13, B14 is lower in “ratio of amount bound” value: 0.88 for the first, 0.75 for the second.

Compared with B15, B16 is higher in “ratio of amount bound” value: 0.39 for the first, 0.85 for the second.

First: B17
Second: B18
The “ratio of amount bound” value of the first is higher: 0.72 for the first, 0.29 for the second.

Going from B19 to B20, the “ratio of amount bound” value falls from 1.19 to 0.92.

Going from B21 to B22, the “ratio of amount bound” value falls from 0.89 to 0.75.

Compared with B23, B24 is lower in “ratio of amount bound” value: 0.96 for the first, 0.25 for the second.

Going from B25 to B26, the “ratio of amount bound” value falls from 0.88 to 0.43.

Compared with B27, B28 is higher in “ratio of amount bound” value: 0.5 for the first, 0.73 for the second.

First: B29
Second: B30
The “ratio of amount bound” value of the first is lower: 0.24 for the first, 0.89 for the second.

First: B31
Second: B32
The “ratio of amount bound” value of the first is lower: 0.24 for the first, 1.13 for the second.
